Where two headings read alike, the source gives them in different places.
Assays:
FUS wild-type [1] = target: T1, FUS wild-type (UniProt P35637 1-526); assay: fluorescence anisotropy
FUS wild-type [2] = target: T1, FUS wild-type; assay: single-molecule fluorescence
FUS wild-type [3] = target: T1, FUS wild-type; assay: single-molecule fluorescence; remark: listed apart in the source
FUS Y>S = FUS Y>S (UniProt P35637 1-526, Y6S;Y14S;Y17S;Y25S;Y33S;Y38S;Y41S;Y50S;Y55S;Y58S;Y66S;Y75S;Y81S;Y91S;Y97S;Y100S; …); assay: single-molecule fluorescence

UUUUUUUUUUUUUUUUUUUUUUUUUUUUUUUUUUUUUUUU (ssRNA) [U40 RNA]
Kd (FUS wild-type [1]): ~5 nM

B1: pdU50 RNA (mixed)
RNA 1: UUUUUUUUUUUUUUUUUUUUUUUUUUUUUUUUUUUUUUUUUUUUUUUUUUGCCUCGCUGCCGUCGCCA
RNA 2: UGGCGACGGCAGCGAGGC
binding result (FUS wild-type [2]): binds

B2: pdPAR9 (mixed)
DNA 1: TGGCGACGGCAGCGAGGC
DNA 2: GCCTCGCTGCCGTCGCCA
modifications: PAR 9-mer joined to DNA strand 1 by alkyne-azide click; PAR not part of printed strand
binding result (FUS wild-type [3]): binds

B3: pdPAR22 (mixed)
DNA 1: TGGCGACGGCAGCGAGGC
DNA 2: GCCTCGCTGCCGTCGCCA
modifications: PAR 22-mer joined to DNA strand 1 by alkyne-azide click; PAR not part of printed strand
binding result (FUS wild-type [3]): binds
binding result (FUS Y>S): binds
